Measured values: US20190225669A1 (ACCELERON PHARMA, published 2019)

Columns and labels:
BMP15 = molecular target: T1, BMP15 (UniProt O95972 268-392); experiment: Biacore SPR
T1 construct: also called GDF9b
T1 sequence (looked up): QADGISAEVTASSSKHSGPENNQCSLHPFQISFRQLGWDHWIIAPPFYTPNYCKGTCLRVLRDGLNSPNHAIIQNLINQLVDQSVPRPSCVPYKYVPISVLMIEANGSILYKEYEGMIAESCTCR
Description: A Biacore™-based binding assay was used to compare ligand binding selectivity of the BMPRII-Fc:ALK2-Fc heterodimeric complex described above with that of BMPRII-Fc and ALK2-Fc homodimeric complexes. […] Ligands were injected and allowed to flow over the captured receptor protein.

GDF11 [1] = molecular target: T2, GDF11 (UniProt O95390 299-407); experiment: Biacore SPR
T2 construct: also called BMP11
T2 sequence (looked up): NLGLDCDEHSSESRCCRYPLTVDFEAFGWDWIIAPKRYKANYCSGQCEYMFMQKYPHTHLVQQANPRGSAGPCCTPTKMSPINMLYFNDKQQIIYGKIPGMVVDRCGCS
Description: (§1) Ligands were injected and allowed to flow over the captured receptor protein.

activin A [2] = molecular target: T3, activin A (UniProt P08476 311-426); experiment: Biacore SPR
T3 sequence (looked up): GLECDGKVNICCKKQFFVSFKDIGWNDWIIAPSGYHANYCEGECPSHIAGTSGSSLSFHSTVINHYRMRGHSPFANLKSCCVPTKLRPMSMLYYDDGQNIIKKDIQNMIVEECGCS
Description: as §1

activin B [3] = molecular target: T4, activin B (UniProt P09529 293-407); experiment: Biacore SPR
T4 sequence (looked up): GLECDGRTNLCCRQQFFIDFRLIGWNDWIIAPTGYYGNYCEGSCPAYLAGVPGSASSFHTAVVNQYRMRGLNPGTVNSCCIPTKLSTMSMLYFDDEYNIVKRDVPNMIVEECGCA
Description: as §1

GDF3 [4] = molecular target: T5, GDF3 (UniProt Q9NR23 251-364); experiment: Biacore SPR
T5 sequence (looked up): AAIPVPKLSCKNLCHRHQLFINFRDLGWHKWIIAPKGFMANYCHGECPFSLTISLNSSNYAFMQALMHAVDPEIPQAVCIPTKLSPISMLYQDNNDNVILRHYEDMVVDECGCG
Description: as §1

BMP10 [5] = molecular target: T6, BMP10 (UniProt O95393 317-424); experiment: Biacore SPR
T6 sequence (looked up): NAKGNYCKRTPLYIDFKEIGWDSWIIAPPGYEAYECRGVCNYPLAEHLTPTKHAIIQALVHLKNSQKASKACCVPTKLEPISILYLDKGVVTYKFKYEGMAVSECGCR
Description: as §1

BMP5 [6] = molecular target: T7, BMP5 (UniProt P22003 317-454, limits assumed); experiment: Biacore SPR
T7 sequence (looked up): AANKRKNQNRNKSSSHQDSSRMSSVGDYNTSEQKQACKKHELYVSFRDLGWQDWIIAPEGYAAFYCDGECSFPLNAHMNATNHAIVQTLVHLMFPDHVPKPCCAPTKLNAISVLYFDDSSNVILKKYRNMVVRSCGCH
Description: as §1

GDF8 [7] = molecular target: T8, GDF8 (UniProt O14793 267-375); experiment: Biacore SPR
T8 construct: also called myostatin
T8 sequence (looked up): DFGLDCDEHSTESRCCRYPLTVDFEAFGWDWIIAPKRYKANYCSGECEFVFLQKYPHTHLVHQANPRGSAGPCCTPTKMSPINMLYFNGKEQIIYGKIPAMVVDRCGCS
Description: as §1

GDF6 = molecular target: T9, GDF6 (UniProt Q6KF10 336-455, limits assumed); experiment: Biacore SPR
T9 construct: also called BMP13
T9 sequence (looked up): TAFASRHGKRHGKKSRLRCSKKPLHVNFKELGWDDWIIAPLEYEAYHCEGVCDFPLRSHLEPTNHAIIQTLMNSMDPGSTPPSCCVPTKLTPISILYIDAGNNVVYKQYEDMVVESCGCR
Description: as §1

BMP9 = molecular target: T10, BMP9 (UniProt Q9UK05 320-429); experiment: Biacore SPR; kinetics indeterminate (transient)
T10 construct: also called GDF2
T10 sequence (looked up): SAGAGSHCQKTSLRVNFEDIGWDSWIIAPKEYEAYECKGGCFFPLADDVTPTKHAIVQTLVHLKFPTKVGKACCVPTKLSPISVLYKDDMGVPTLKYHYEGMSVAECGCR
Description: as §1

BMP6 = molecular target: T11, BMP6 (UniProt P22004 382-513, limits assumed); experiment: Biacore SPR
T11 sequence (looked up): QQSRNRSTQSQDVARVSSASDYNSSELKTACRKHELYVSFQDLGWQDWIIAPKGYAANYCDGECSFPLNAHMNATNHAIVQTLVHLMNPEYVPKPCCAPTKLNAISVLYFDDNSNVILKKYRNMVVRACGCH
Description: as §1

GDF11 [8] = molecular target: T2, GDF11; experiment: Biacore SPR; remark: listed apart in the source
Description: as §1

activin A [9] = molecular target: T3, activin A; experiment: Biacore SPR; remark: listed apart in the source
Description: as §1

activin B [10] = molecular target: T4, activin B; experiment: Biacore SPR; remark: listed apart in the source
Description: as §1

GDF3 [11] = molecular target: T5, GDF3; experiment: Biacore SPR; remark: listed apart in the source
Description: as §1

BMP10 [12] = molecular target: T6, BMP10; experiment: Biacore SPR; remark: listed apart in the source
Description: as §1

BMP5 [13] = molecular target: T7, BMP5; experiment: Biacore SPR; remark: listed apart in the source
Description: as §1

GDF8 [14] = molecular target: T8, GDF8; experiment: Biacore SPR; remark: listed apart in the source
Description: as §1

B1: ALK2-Fc homodimer (Fc fusion, UniProt Q04771 21-123, looked up, not shown: a dimerising Fc or GST)
chain: MEDEKPKVNPKLYMCVCEGLSCGNEDHCEGQQCFSSLSINDGFHVYQKGCFQVYEQGKMTCKTPPSPGQAVECCQGDWCNRNITAQLPTKGKSFPGTQNFHLE
notes: extracellular domain
BMP15
  binding result: no binding
GDF11 [1]
  binding result: no binding
Activin A [2]
  binding result: no binding
Activin B [3]
  binding result: no binding
GDF3 [4]
  binding result: no binding
BMP10 [5]
  binding result: no binding
BMP5 [6]
  binding result: no binding
GDF8 [7]
  binding result: no binding
GDF6
  binding result: no binding

B2: ActRIIB-Fc:ALK7-Fc heterodimer (Fc fusion)
chain 1: GRGEAETRECIYYNANWELERTNQSGLERCEGEQDKRLHCYASWRNSSGTIELVKKGCWLDDFNCYDRQECVATEENPQVYFCCCEGNFCNERFTHLPEAGGPEVTYEPPPTAPTGGGTHTCPPCPAPELLGGPSVFLFPPKPKDTLMISRTPEVTCVVVDVSHEDPEVKFNWYVDGVEVHNAKTKPREEQYNSTYRVVSVLTVLHQDWLNGKEYKCKVSNKALPAPIEKTISKAKGQPREPQVYTLPPSRKEMTKNQVSLTCLVKGFYPSDIAVEWESNGQPENNYKTTPPVLKSDGSFFLYSKLTVDKSRWQQGNVFSCSVMHEALHNHYTQKSLSLSPGK
chain 2: GLKCVCLLCDSSNFTCQTEGACWASVMLTNGKEQVIKSCVSLPELNAQVFCHSSNNVTKTECCFTDFCNNITLHLPTASPNAPKLGPMETGGGTHTCPPCPAPELLGGPSVFLFPPKPKDTLMISRTPEVTCVVVDVSHEDPEVKFNWYVDGVEVHNAKTKPREEQYNSTYRVVSVLTVLHQDWLNGKEYKCKVSNKALPAPIEKTISKAKGQPREPQVYTLPPSREEMTKNQVSLTCLVKGFYPSDIAVEWESNGQPENNYDTTPPVLDSDGSFFLYSDLTVDKSRWQQGNVFSCSVMHEALHNHYTQKSLSLSPG
notes: C-terminal Lys optional; also called ActRIIB-Fc:ALK7 heterodimer
BMP9
  Kd: > 1.4 nM
BMP6
  Kd: 5.3 nM
  koff: 0.0063 s⁻¹
  kon: 1.2e+06 M⁻¹ s⁻¹
GDF11 [8]
  Kd: 0.008 nM
  koff: 0.00075 s⁻¹
  kon: 9.5e+07 M⁻¹ s⁻¹
Activin A [9]
  Kd: 0.043 nM
  koff: 0.0019 s⁻¹
  kon: 4.4e+07 M⁻¹ s⁻¹
Activin B [10]
  Kd: 0.017 nM
  koff: 0.0002 s⁻¹
  kon: 1.2e+07 M⁻¹ s⁻¹
GDF3 [11]
  Kd: 4.5 nM
  koff: 0.01 s⁻¹
  kon: 2.3e+06 M⁻¹ s⁻¹
BMP10 [12]
  Kd: 0.19 nM
  koff: 0.0028 s⁻¹
  kon: 1.5e+07 M⁻¹ s⁻¹
BMP5 [13]
  Kd: 57 nM
  koff: 0.0085 s⁻¹
  kon: 150000 M⁻¹ s⁻¹
GDF8 [14]
  Kd: 0.27 nM
  koff: 0.001 s⁻¹
  kon: 3.7e+06 M⁻¹ s⁻¹
